± gives the standard deviation of the averaged measurements.
B1: library; a variant is named by its letters at N, in order (parent)
chain: GCUGUCACCGGAAUACCAGCAUCGUCUUGAUGCCCUUGGAAGUCCGGUCUGAUGAGUCCNNNNNGGACGAAACAGC

Key:
[1] = variants of: B1; assay: FACS-Seq fitted mean relative fluorescence mCherry/BFP without ligand (log10 relative fluorescence); higher = higher reporter protein expression; settings: HEK293T, ligand present: no
Summary of the method: (§1)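 HEK293T libraries were lentivirally transduced with an mCherry reporter carrying the ribozyme switch and an EF1α-BFP marker, enriched, and incubated for 48 h with or without ligand before sorting into 6 bins by mCherry/BFP. Genomic DNA from each bin was PCR-amplified, barcoded and sequenced on MiSeq. Fluorescence is the fitted normal mean of the bin counts. The fit used log10(mCherry/BFP), and means were scaled to five spiked-in control ribozymes.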

[2] = variants of: B1; assay: normalized RNA/DNA level with ligand (relative to sTRSVctl = 100) (log10 (% of sTRSVctl)); higher = less ribozyme self-cleavage, higher mRNA level; settings: ligand concentration (+) RNA-Seq: 5 mM, HEK293T, reporter: mCherry (pCS4076), ligand present: yes
Summary of the method: (§2)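 Library plasmids carrying ribozyme switches linked to mCherry, or to eGFP in some ligand experiments, were transfected into HEK293T at 4 µg per 6-well well, with any ligand added 1 h earlier. Seventy-two hours on, total RNA was extracted with EDTA and reverse-transcribed, amplified, barcoded and sequenced. RNA level was RNA over DNA reads normalized to a spiked-in non-cleaving sequence or to the top sequences, then scaled and log-transformed. The top set was 25 sequences, the transform was ×100 and log10, and sequences needed ≥100 DNA reads.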

[3] = variants of: B1; assay: normalized RNA/DNA level without ligand (relative to sTRSVctl = 100) (log10 (% of sTRSVctl)); higher = less ribozyme self-cleavage, higher mRNA level; settings: HEK293T, reporter: mCherry (pCS4076), ligand present: no
Summary of the method: as §2

[4] = variants of: B1; assay: FACS-Seq fitted mean relative fluorescence mCherry/BFP with ligand (log10 relative fluorescence); ligand concentration (+) FACS-Seq: 1 mM; higher = higher reporter protein expression; settings: HEK293T, ligand present: yes
Summary of the method: as §1

Variant | FACS-Seq fitted mean (log10) [1] | normalized RNA/DNA level with ligand (log10) [2] | normalized RNA/DNA level without ligand (log10) [3] | FACS-Seq fitted mean (log10) [4]
CGUAU | 0.177 ± 0.0091 | 2 ± 0.05 | 1.54 ± 0.11 | 0.491 ± 0.0065
AGGAC | 0.549 ± 0.067 | 1.97 ± 0.089 | 1.81 ± 0.12 | 0.721 ± 0.074
AGGAG | 0.642 ± 0.032 | 1.92 ± 0.022 | 1.73 ± 0.072 | 0.834 ± 0.045
UCCUU | 0.983 ± 0.13 | 2.011 ± 0.0076 | 1.94 ± 0.053 | 1.01 ± 0.082
UACCA | 0.405 ± 0.01 | 1.9 ± 0.086 | 1.82 ± 0.098 | 0.436 ± 0.11
UACCC | 0.622 ± 0.13 | 2.02 ± 0.026 | 2.04 ± 0.048 | 0.599 ± 0.045
UUCUC | 1.19 ± 0.051 | 1.99 ± 0.049 | 1.94 ± 0.057 | 1.15 ± 0.13
CUAUU | 0.965 ± 0.18 | 2.03 ± 0.023 | 1.85 ± 0.1 | 0.924 ± 0.012
GAUGC | 0.964 ± 0.13 | 1.98 ± 0.029 | 1.88 ± 0.098 | 1.05 ± 0.072
CCGCA | 0.678 ± 0.047 | 2.08 ± 0.025 | 1.83 ± 0.043 | 0.764 ± 0.0084
UAGUA | 0.245 ± 0.011 | 1.87 ± 0.019 | 1.45 ± 0.074 | 0.503 ± 0.008
AAAUG | 0.571 ± 0.038 | 2.03 ± 0.022 | 1.75 ± 0.054 | 0.607 ± 0.029
GCAUU | 0.42 ± 0.1 | 1.938 ± 0.0078 | 1.792 ± 0.0054 | 0.4217 ± 0.00082
AUUCC | 0.959 ± 0.011 | 1.99 ± 0.1 | 1.95 ± 0.072 | 0.909 ± 0.08
CGCUU | 0.746 ± 0.19 | 1.99 ± 0.087 | 1.62 ± 0.075 | 0.896 ± 0.11
UACUG | 0.382 ± 0.044 | 1.9807 ± 0.00035 | 1.94 ± 0.04 | 0.421 ± 0.12
UACUU | 0.59 ± 0.079 | 2.01 ± 0.023 | 1.9 ± 0.041 | 0.754 ± 0.026
UUCAA | – | 2.08 ± 0.056 | 1.86 ± 0.12 | –

Reference: the supplement of paper PMC6757056
